Consider 30 sequences from the nanobody polyreactivity screen of Harvey et al. (2022).

The series can be described thus: yeast display, Sf9 membrane polyspecificity reagent, FACS + sequencing; frameworks hold sequencing errors. An outline of the steps:
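Genes from sorted yeast were amplified by colony PCR, read by MiSeq 2 × 250 sequencing and filtered on CDR length. These cells carried a synthetic nanobody library in Saccharomyces cerevisiae BJ5465 and were sorted by FACS into low and high (top ~1%) gates on anti-HA and streptavidin fluorescence. Polyreactivity is labelled according to the gate of origin.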
Consider “QVQLVESGGGLVQAGGSLRLSCAASGRISLRILWDGIDRRLGKKGSWLPLLTNTGSTNYADSVKGRFTISRDNAKNTVYLQMNSLKPEDTAVYDCNADPTGGSSYPAYFEYDYWGQGTQVTVSS”, for which the “polyreactivity (PSR sort gate)” value is “low polyreactivity”. “QVQLVESRGGLVQAGGSLLLRCAASGSTITRNAMGWYRQAPGKERELVAAITSGGGTNYADSVKGRFTISRDNAKNTVYLQMNSLKPEDTAVYYCADRYWRFYTKRGYWGQGTQVTVSS”: the “polyreactivity (PSR sort gate)” value was “high polyreactivity”. As for “QVQLVESGGGLVQAGGSLRLSCAASGYTFPLYAMGWYRQAPGKERELVADINIGGASTYYADSVKGRFTISRDNAKNTVYLQMNSLKPEDTAVYYCAADSRKRQGYGYWGQGTQVTVSS”, the “polyreactivity (PSR sort gate)” value is recorded as “low polyreactivity”. For “QVQLVESGGGLVQAGGSLRLSCAASGSTFTGYAMGWYRQAPGKEREFVATITKRGGRTYYADSVKGRFTISRDNAKNTVYLQMNSLKPEDTAVYYCARDQGKLVVPYDYWGQGTQVTVSS” the value was “high polyreactivity”; for “QVQLVESGGGLVQAGGSLRLSCAASGSTFSYYAMGWYRQAPGKEWELVAAIRSGGSTYYADSVKGRFTISRDNAKNTVYLQMNSLKPEDTAVYYCNADYIRASTLNYGTIYYWHYDYWGQGTQVTVSS”, “high polyreactivity”; for “QVQLVESGGGLVQAGGSLRVSCAASGFTFGPYDMGGSRQAPGKERELVAVIIGGDSTNYADSVKGRFTISRDNAKNTVYLQMNRLKPEDTAVYYCAADYIDRVGWMDYWGQGTQVTVSS”, “low polyreactivity”. For “QVQLVESGGGLVQAGGSLRLSCAASGGTFRGYAMGWYRQAPGKERELVAAISRGTSTNYADSVKGRFTISRDNAKNTVYLHLNSLKPEDTAVYYCNAAKRGWYYDYYYWGQGTQVTVSS” the value was “high polyreactivity”; for “QVQLVESGGGLVKAGCSLRLRCAASGGTFSYYAMGLYRQAPGKERELVAAISRSSSRTYYADSVKGRFTISRDNAKNTVFLQMNSLKPEDTAVYYCAADRVSYSGRTPKGQRYDYWGQGTQVTVSS”, “high polyreactivity”. The value for “QVQLVESGGRLVQAGGSLRLSCAASGRIFRYNAMGWYRQAPGKEREFVARISVITGRTYYADSVKGRFTISRDIAKNTVYLQMNSLKPEDTAVYYCAADAGYNYRYLLRGDYWGQGTQVTVSS” was “high polyreactivity”; that for “QVQLVESGGGLVQAGGSLRLSCAASGFTFYSYAMGWYRQAPGKERELVAAISWSGTRTYYADSVKGRFTISRDNAKYTVYLQMNSLKPEDTAVYYCAARGYRYGYGYWGQGTQVTVSS” was “high polyreactivity”. As for “QFQLVESVGGLVQAGGSLRLSCAASGITFPANAMGWYRQAPGKERELVAAISSSGGSTYYADSVKGRFTISRDNAKNTVYLQMNSLKPEDTAVYYCAAYYGPSRSLYYYWGQGTQVTVSS”, the “polyreactivity (PSR sort gate)” value was “high polyreactivity”. For “QVQLVESGGGLVQAGGSLRLSCAASGGTFAAYAMGWYRQAPGKERELVAAIDSGGTTKYADSVKGRFTISRDNAKNTVYLQMNSLKPEDTAVYYCAKVTTGFGVETYHGKGNDYWGQGTQVTVSS” the value was “low polyreactivity”. The value for “QVQLVESGGGLVQAGGSLRLSCAASGRIFDYYAMGWYRQAPGKERELVAAISSSVGNTYYADSVKGRFTISRDNAKNSVYLQINSLKQEDTAVYYCADYSYVRSSYEVEYDYWGQGTQVTVSS” was “low polyreactivity”; that for “QVQLQESGGGLVQAGGSLRLSCAASGSIFDGFYMGWYRQAPGKEREFVAAISYGASTYYADSVKGRFTVSRDNAKNSVYLQMNSLKPEDTAVYYCAVYDELYHVLVYWGRGTQVTVSS” was “low polyreactivity”. For “QVQHVESAAGLVQAGCSLRLSGAASGRIFRGYAMGWSRPAHGNEWELVAGITWGGGSTYYADSVKGRFTISRDKAKNTVYLQMNSLKPEDTAVYYCNAVRPRQWWTHFGYWGQGTQVTVSS” the value was “high polyreactivity”; for “QVQLVESGGGLVQAGGSLRLSCAASGRIFNLYDMGWYRQAPGKERELVAAITTGGDTTNYADSVKGRFTISRDNAKNTVYLQMNSLKPEDTAVYYCAADDGWIEPVYGYYEHEYWGQGTQVTVSS”, “low polyreactivity”. Turning to “QVQLVESGGGLVQAGGSLRLSCAASGRIFVTNTMGWYRQAPGKERELVAAIDNSAGSTYYADSVKGRFTISRDNAKNTVYLQMNSLKPEDTAVYYCAADYPPYYGYGYWGQGTQVSVSS”, the “polyreactivity (PSR sort gate)” value is recorded as “low polyreactivity”. The value for “QVQLVESGGGLVQAGGSLRLSCAASGYIFYFYAMGWYRQAPGKERELVAAITSVGSTKYADSVKGRFTISRDNAKNTVYLQMNSLKPEDTAVYYCAARRWRSYYYWGQGTQVTVSS” was “high polyreactivity”; that for “QVQLVESGGGLVQAGGSLRLSCAASGRIFGPYTMGWYRQAPGKERELVAAINGRGGSTYYADSVKGRFTISRDNAKNTVYLQMNSLKPEDTAVYYFNASPTWVYSRVYGYNYWGQGTQVTVSS” was “low polyreactivity”; that for “QVQIVESGGGLVQAGGSLRLSCAASGFTFRYYAMGWYRQAPGQERELVAAISKSGGSTYYADSVKGRFTISRDNAKNTVDLQMNSLKPEDTAVYYCAADYAHIGYDYDYWGQGTQVTVSS” was “high polyreactivity”. The value for “QVQLVESGGGLVQAGGSLRLSCAASGLIFSTNDMGWYRQAPGKERELVAAITSDVSTYYADSVKGRFTISRDNAKNTVYLQMNSLEPEDTAVYYCAKDDSGYINWRYDYWGQGTQVTVSS” was “low polyreactivity”; that for “QVQLVESGGGLVQAGGSLRLSCAASGSTFHRYAMGWYRQAPGKERELVAAISVRTGSTYYADSVKGRFTISRDNAKNTVYLQMNSLKPEDTAVYSCAVGKQINGKIYRYDYWGQGTQVTVSS” was “high polyreactivity”.

As for “QVQLVESGGGLVQAGGSLRLSCSASGSIFLIYAMGWYRQAPGKERELVATINRGDNTYYADSVKGRFTISRDNAKNSVYLQMNSLKPEDTAVYYCAARAYDLGYAGYDYWGQGTQVTVSS”, the “polyreactivity (PSR sort gate)” value was “low polyreactivity”.

Consider “QVHLVESGGGLVQAGGSLRLSCAASGRTFRLYAMGWYRQAPGKERELVAAITRGGRTNYADSVKGRFTISRDNAKNTVFLQMISLKPEDTAVYYCAARYVERHTDYYYWGQGTQVTVSS”, for which the “polyreactivity (PSR sort gate)” value is reported as “low polyreactivity”. The value for “QVQLVESGGGLVQAGGSLRLSCAASGRIIYRYAMGWYRQAPGKERELVATITWSTTSTYHADSVKGRFTISRDNAKNTVYLQMNSLKPEDTAVYYCAASIIPGFRRDPFGYWGQGTQVTVSS” was “low polyreactivity”; that for “QVQLVESGGGLVQAGGSLRLSCAASGFTFKYYAMGWYRQAPGKERELVARISWSGGSTYYADSVKGRFTISRDNAKNTVYLQMNSLKPEDTAVYYCAAKLYSKRTGARMNYWGQGTQVTVSS” was “high polyreactivity”; that for “QVQLVESGGGLVQAGGSLRLRCAASGRIFYSNTMGWYRQAPGKERELVADITSGGSTKYADSVKGRFTISRDNAKNTVYLQMISLKPEDTAVYYCAAGERYDWWYGGFQGYDYWGQGTQVTVSS” was “high polyreactivity”. Regarding “QVHLVESGGGLVQAGGSLRLRCAASGRIFPSNAMGWYRQAPWKERELVAGITWRRDSTYYADSVKGRFTISRDKAKNTVYLQMNSLKPEDTAVYYCAATFRYTKLYYWGQGTQVTVSS”, the “polyreactivity (PSR sort gate)” value is “low polyreactivity”. For “QVQLVESGGGLVQAGGSLRLSCAASGSTGVNTMGWYRQAPGKERELVAAIRATGGSTYYADSVKGRFTISRDNAKNTVYLQMNSLKPEDTAVYYCAARYYRSQYWYDDSWGQGTQVTVSS” the value was “high polyreactivity”; for “QVQLVESGGGLVQAGGSLRLSCAASGRIFDVYAMGWYRQAPGKERELVATITCSGGGTYYADSVKGRFTISRDNAKNSVYLQMNSLKPEDTAVYYCAADYYPTYAYYVSNVGYDYWGQGTQVTVSS”, “low polyreactivity”.
